Reference: patent US6348317B1, “Fluorescent and DNA cleavage properties of peptide/dye conjugates” (The Arizona Board of Regents, priority 1999, dated 2002)
Read-outs that look alike come from different tables or passages of the source. No end group written: not given here.

Tests used:
[1] = tested on: Hin recombinase consensus sequence (hixL) dsDNA; test: Total fluorescence reverse titration of conjugate with nonlabeled consensus DNA; type: binding, S. typhimurium
Description: Fluorescence Measurements. Steady state fluorescence anisotropy and total fluorescence measurements were performed as forward and reverse titrations, respectively, as described previously, M. Thompson, et al., supra, 2000. Forward titrations of the tetramethylrhodamine labeled DNA (TMR-DNA) with nonlabeled DNA-binding domains were performed at 10 nM TMR-DNA. Vertical excitation was at 542 nm with detection in the verticle and horizontal planes at 582 nm. Reverse titrations of 1 nM of the appropriate conjugate were titrated with nonlabeled DNA. Excitation and emission detection was at 480 nm and 510 nm for oxazole yellow and 510 nm and 535 nm for thiazole orange samples. Salt dependence studies were performed by titrating an appropriate amount of 1 M NaCl in the same Tris buffer to yield the indicated final salt concentration. Temperature dependence studies were performed by incubating each sample for 30 minutes at the given temperature. The temperature of the sample was held constant by pumping water through the cuvette holder from a temperature equilibrated water bath. Each titration was performed at least 3 times.
Determination of thermodynamic functions. The contribution of the hydrophobic effect and the polyelectrolyte effect to the stability of the conjugate or DNA-binding domain—DNA complex is assessed by analysis of the dependence of the observed association equilibrium constant Kobs for a range of temperatures and salt concentrations as in the following: [formula]
where, [P] eq is the concentration of the conjugate or DNA-binding domain, [D] eq is the concentration of DNA, and [PD] eq is the concentration of bound complex at equilibrium. The analysis is based on the assumption that this is a single-step bimolecular reaction.
Specific binding by the dye labeled peptides (conjugates). The binding affinity of the two dye labeled peptides comprising the Hin recombinase and Tc3 transposase DNA-binding domains conjugated to oxazole yellow and thiazole orange, respectively, were determined. In this case, the total fluorescence intensity can be used to determine the binding affinity by these systems. […] In addition, the bound and free populations of the conjugate, and therefore the dye, present at equilibrium have such an extreme increase in quantum yield (˜1000-5000-fold) that the total fluorescence from the system is a very sensitive and accurate way to monitor binding. Note that each oligonucleotide shown was hybridized to […] forming a dsDNA segment.
In FIG. 9, semi-log plot of the total fluorescence of I nM conjugate is plotted as the log of the concentration of nonlabeled DNA containing each respective consensus sequence. The solid lines represent a fit for the percent of the maximal fluorescence values at 298 K, 0.150 M Na+, (●),313 K, 0.150 M Na+ (t) and 298 K, 0.250 M Na+(▪). The binding constants (Kobs) determined from these curves and the corresponding binding free energies (DG°) are given in Table 1 for the range of salt concentrations (0.15 to 0.25 M Na+) and temperatures (275 to 313 K) investigated. The equilibrium constant decreases 7- and 10-fold for the TOTc3 and YOHin, respectively, when the salt concentration is increased from 0.15 to 0.25 M salt.

[2] = target: fluorescein labeled GRE2 sequence dsDNA (F-GRE2); test: Total fluorescence quenching (energy transfer) of fluorescein labeled DNA; type: binding
Description: Fluorescence Measurements. Steady state fluorescence anisotropy measurements were carried out in 20 mM Tris (pH 7.9), 30 mM NaCl, 20 mM KCl, 1 mM MgCl2, and 5% glycerol. […] DNA samples used were either the non-labeled sequences shown in FIG. 2 or a fluorescein labeled duplex with a sequence matching GRE2 (FIG. 2).
For fluorescein labeled DNA measurements, the excitation wavelength was 491 nm and the emission was recorded at 521 nm with a 1.0 nm slit width. Titrations were performed holding the concentration of fluorescein-labeled DNA constant and increasing the concentration of TO, ZF or TO-ZF as indicated. To correct for the small amount of background fluorescence from TO in these measurements, control experiments were performed in parallel using DNA that was not fluorescein labeled, but was otherwise identical to the labeled DNA fragments. The thiazole orange fluorescence intensity measured in the control experiments was subtracted from the total fluorescence intensity for each data point. Under the excitation conditions of these measurements, the contribution to fluorescence by TO at 521 nm was less than 5% of the maximum fluorescence signal observed in the experiment. Even at the point in the titration where the maximum quenching of fluorescein fluorescence was observed (the point of lowest total fluorescence in the measurement), less than half of the fluorescence was due to TO, and this could accurately be removed by subtraction of the control value. Each point is an average of 60 measurements, and each titration was performed independently three times.
Total fluorescence data were collected in parallel to the anisotropy measurements and were calculated from raw data as the fluorescence intensity in the vertical plane plus two times the fluorescence intensity of the horizontal plane, (TF=Ivv+2Ivh). These values were used to determine the percent of the maximum fluorescence for each point along the titration and fit to equation 2. [formula] […]
Fluorescence changes upon binding of TO, ZF and TO-ZF to GRE containing duplex DNA. Equilibrium binding of the non-labeled zinc finger (ZF), unconjugated thiazole orange (TO) and thiazole orange-zinc finger conjugate (TO-ZF) to fluorescein labeled GRE2 sequence dsDNA was measured by both fluorescence anisotropy and total fluorescence. […] For fluorescein fluorescence, excitation was at 491 nm and emission was detected at 521 nm. […] Changes in the steady-state anisotropy of the fluorescein fluorescence from the labeled GRE sequence containing DNA (F-GRE2) can arise from two sources. […] By comparison, the amino acid zinc finger Xfin-31 was determined to have a dissociation constant of approximately 1 μM, M. S. Lee, et al., FEBS 279:289-294 (1991), whereas, the 66 amino acid zinc finger from GATA-1 has a dissociation constant of 10 nM. […]

poly(dG)-poly(dC) 20-mer = test: Thiazole orange total fluorescence titration with non-target DNA; settings: 50 nM TO-ZF or TO; fit to equation 2; read-out: dissociation constant, non-specific binding
dsDNA = settings: cited from earlier work
[3] = target: T1, TOTc3 (thiazole orange-Tc3 transposase DNA-binding domain, residues 202-253) (UniProt P34257 SEQ:1-51); test: 298 K, 0.150 M Na+; 275 K 22e6, 293 K 66e6, 313 K 22e6; 298 K 0.250 M Na+ 17e6; settings: protein: synthetic; tags: thiazole orange covalently attached; synthetic solid-phase peptide (text states 52 aa, listing 51 aa)
T1 chain: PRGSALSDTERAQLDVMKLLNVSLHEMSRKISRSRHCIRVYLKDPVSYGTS

[4] = target: T2, TO-ZF (thiazole orange-GR zinc finger conjugate) (UniProt P06536 SEQ:1-28); test: TO fluorescence titration; single base change in half-site; settings: protein: synthetic; tags: thiazole orange on Lys epsilon-amine (first residue coupled to resin); synthetic solid-phase peptide (text states 29 aa, listing 28 aa), Zn-loaded
T2 chain: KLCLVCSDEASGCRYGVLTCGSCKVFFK

[5] = target: T2, TO-ZF (thiazole orange-GR zinc finger …); test: TO fluorescence titration; same buffer; settings: protein: synthetic; tags: thiazole orange on Lys epsilon-amine (first residue coupled to resin); synthetic solid-phase peptide (text states 29 aa, listing 28 aa), Zn-loaded
[6] = target: T2, TO-ZF (thiazole orange-GR zinc finger …); test: TO fluorescence titration; two base changes vs GRE; settings: protein: synthetic; tags: thiazole orange on Lys epsilon-amine (first residue coupled to resin); synthetic solid-phase peptide (text states 29 aa, listing 28 aa), Zn-loaded
[7] = target: T2, TO-ZF (thiazole orange-GR zinc finger …); test: TO fluorescence titration; 20 mM Tris pH 7.9, 30 mM NaCl, 20 mM KCl, 1 mM MgCl2, 5% glycerol, ZnCl2; settings: protein: synthetic; tags: thiazole orange on Lys epsilon-amine (first residue coupled to resin); synthetic solid-phase peptide (text states 29 aa, listing 28 aa), Zn-loaded
[8] = target: T2, TO-ZF (thiazole orange-GR zinc finger …); test: same as poly(dG)-poly(dC) within experimental error; settings: protein: synthetic; tags: thiazole orange on Lys epsilon-amine (first residue coupled to resin); synthetic solid-phase peptide (text states 29 aa, listing 28 aa), Zn-loaded
[9] = target: T2, TO-ZF (thiazole orange-GR zinc finger …); test: TO fluorescence titration; single G to A change in half-site; settings: protein: synthetic; tags: thiazole orange on Lys epsilon-amine (first residue coupled to resin); synthetic solid-phase peptide (text states 29 aa, listing 28 aa), Zn-loaded
[10] = target: T3, YOHin (oxazole yellow-Hin recombinase DNA-binding domain, residues 139-190) (UniProt P03013 SEQ:1-52); test: 298 K, 0.150 M Na+; 275 K 22e6, 293 K 143e6, 313 K 29e6; 298 K 0.250 M Na+ 14e6; settings: protein: synthetic; tags: oxazole yellow covalently attached; synthetic solid-phase peptide
T3 chain: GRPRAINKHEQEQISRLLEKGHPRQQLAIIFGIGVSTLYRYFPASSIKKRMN

YOHin: oxazole yellow conjugated to the 52 amino acid Hin DNA binding domain, residues 139-190 of Hin recombinase (GRPRAINKHEQEQISRLLEKGHPRQQLAIIFGIGVSTLYRYFPASRIKKRMN; also: oxazole yellow conjugated, site not given here; UniProt P03013 139-190, looked up, fragment)
decrease of equilibrium constant when salt is increased from 0.15 to 0.25 M ([1]; 0.15 to 0.25 M salt): 10 fold | Kobs ([1]; 275 K, 0.150 M Na+): 22 (M^−1) × 10^−6 | ΔG° ([1]; 275 K, 0.150 M Na+): -9.2 kcal/mol | Kobs ([1]; 278 K, 0.150 M Na+): 21 (M^−1) × 10^−6 | ΔG° ([1]; 278 K, 0.150 M Na+): -9.3 kcal/mol | Kobs ([1]; 283 K, 0.150 M Na+): 40 (M^−1) × 10^−6 | ΔG° ([1]; 283 K, 0.150 M Na+): -9.8 kcal/mol | Kobs ([1]; 288 K, 0.150 M Na+): 61 (M^−1) × 10^−6 | ΔG° ([1]; 288 K, 0.150 M Na+): -10.3 kcal/mol | Kobs ([1]; 293 K, 0.150 M Na+): 143 (M^−1) × 10^−6 | ΔG° ([1]; 293 K, 0.150 M Na+): -10.9 kcal/mol | Kobs ([1]; 298 K, 0.150 M Na+): 83 (M^−1) × 10^−6 | ΔG° ([1]; 298 K, 0.150 M Na+): -10.8 kcal/mol | Kobs ([1]; 298 K, 0.175 M Na+): 67 (M^−1) × 10^−6 | ΔG° ([1]; 298 K, 0.175 M Na+): -10.7 kcal/mol | Kobs ([1]; 298 K, 0.200 M Na+): 37 (M^−1) × 10^−6 | ΔG° ([1]; 298 K, 0.200 M Na+): -10.3 kcal/mol | Kobs ([1]; 298 K, 0.225 M Na+): 29 (M^−1) × 10^−6 | ΔG° ([1]; 298 K, 0.225 M Na+): -10.2 kcal/mol | Kobs ([1]; 298 K, 0.250 M Na+): 14 (M^−1) × 10^−6 | ΔG° ([1]; 298 K, 0.250 M Na+): -9.8 kcal/mol | Kobs ([1]; 303 K, 0.150 M Na+): 60 (M^−1) × 10^−6 | ΔG° ([1]; 303 K, 0.150 M Na+): -10.8 kcal/mol | Kobs ([1]; 308 K, 0.150 M Na+): 41 (M^−1) × 10^−6 | ΔG° ([1]; 308 K, 0.150 M Na+): -10.7 kcal/mol | Kobs ([1]; 313 K, 0.150 M Na+): 29 (M^−1) × 10^−6 | ΔG° ([1]; 313 K, 0.150 M Na+): -10.7 kcal/mol

CN1C(=Cc2cc[n+](C)c3ccccc23)Sc2ccccc21 [TO, thiazole orange]
Kd ([2]; 50 nM F-GRE2, interpretation cautioned (many binding sites), read-out: dissociation constant from quenching curve): 2400 nM | change in total fluorescein fluorescence over the titration ([2]; excitation 491 nm, emission 521 nm): large decreases in steady state fluorescence | Kd (poly(dG)-poly(dC) 20-mer): 2400 nM | Kd (dsDNA; 5-fold higher salt concentration, Nygren et al., Biopolymers 1998, read-out: dissociation constant for binding to dsDNA): ~3000 nM | Kd (dsDNA; Haugland 1996, Netzel et al. 1995, read-out: Kd (moderate affinity DNA binding)): ~10000 nM

B1: Tc3 consensus oligonucleotide (dsDNA)
DNA 1: ATCGGCACGATGCTAGTTCTATAGGACCCCCC
DNA 2: GGGGGGTCCTATAGAACTAGCATCGTGCCGAT
Ka [3]: 2.45e+08 M⁻¹

B2: GRE4 (dsDNA)
DNA 1: TCATACATCTAACTGTCCTATCA
DNA 2: TGATAGGACAGTTAGATGTATGA
Kd [4]: 220 nM

B3: GRE2 (dsDNA)
DNA 1: TGATACGGCTGACTGTTCTATGA
DNA 2: TCATAGAACAGTCAGCCGTATCA
Kd [5]: 25 nM

B4: ERE (dsDNA)
DNA 1: TCATACATCTAACTGACCTATCA
DNA 2: TGATAGGTCAGTTAGATGTATGA
Kd [6]: 810 nM

B5: GRE1 (dsDNA)
DNA 1: TCATACCACTAACTGTTCTATCA
DNA 2: TGATAGAACAGTTAGTGGTATGA
Kd [7]: 25 nM

B6: (dGdC)20 (dsDNA)
DNA 1: GCGCGCGCGCGCGCGCGCGCGCGCGCGCGCGCGCGCGCGC
DNA 2: GCGCGCGCGCGCGCGCGCGCGCGCGCGCGCGCGCGCGCGC
modifications: [none]
Kd [8]: ~1100 nM

B7: GRE3 (dsDNA)
DNA 1: TCATACATCTAACTATTCTATCA
DNA 2: TGATAGAATAGTTAGATGTATGA
Kd [9]: 57 nM

B8: hixL (Hin consensus) oligonucleotide (dsDNA)
DNA 1: TCTTATCAAAAACACTATCGTCGCACGGCTAC
DNA 2: GTAGCCGTGCGACGATAGTGTTTTTGATAAGA
Ka [10]: 8.3e+07 M⁻¹
